The text below walks through data of patent publication US20220133849A1.

This experiment concerns the target Maxi-K channel of rat bladder detrusor smooth muscle (endogenous) (rat) (UniProt Q62976). Briefly: cell-based or functional assay.
Chain of UniProt Q62976 (Q62976 whole entry): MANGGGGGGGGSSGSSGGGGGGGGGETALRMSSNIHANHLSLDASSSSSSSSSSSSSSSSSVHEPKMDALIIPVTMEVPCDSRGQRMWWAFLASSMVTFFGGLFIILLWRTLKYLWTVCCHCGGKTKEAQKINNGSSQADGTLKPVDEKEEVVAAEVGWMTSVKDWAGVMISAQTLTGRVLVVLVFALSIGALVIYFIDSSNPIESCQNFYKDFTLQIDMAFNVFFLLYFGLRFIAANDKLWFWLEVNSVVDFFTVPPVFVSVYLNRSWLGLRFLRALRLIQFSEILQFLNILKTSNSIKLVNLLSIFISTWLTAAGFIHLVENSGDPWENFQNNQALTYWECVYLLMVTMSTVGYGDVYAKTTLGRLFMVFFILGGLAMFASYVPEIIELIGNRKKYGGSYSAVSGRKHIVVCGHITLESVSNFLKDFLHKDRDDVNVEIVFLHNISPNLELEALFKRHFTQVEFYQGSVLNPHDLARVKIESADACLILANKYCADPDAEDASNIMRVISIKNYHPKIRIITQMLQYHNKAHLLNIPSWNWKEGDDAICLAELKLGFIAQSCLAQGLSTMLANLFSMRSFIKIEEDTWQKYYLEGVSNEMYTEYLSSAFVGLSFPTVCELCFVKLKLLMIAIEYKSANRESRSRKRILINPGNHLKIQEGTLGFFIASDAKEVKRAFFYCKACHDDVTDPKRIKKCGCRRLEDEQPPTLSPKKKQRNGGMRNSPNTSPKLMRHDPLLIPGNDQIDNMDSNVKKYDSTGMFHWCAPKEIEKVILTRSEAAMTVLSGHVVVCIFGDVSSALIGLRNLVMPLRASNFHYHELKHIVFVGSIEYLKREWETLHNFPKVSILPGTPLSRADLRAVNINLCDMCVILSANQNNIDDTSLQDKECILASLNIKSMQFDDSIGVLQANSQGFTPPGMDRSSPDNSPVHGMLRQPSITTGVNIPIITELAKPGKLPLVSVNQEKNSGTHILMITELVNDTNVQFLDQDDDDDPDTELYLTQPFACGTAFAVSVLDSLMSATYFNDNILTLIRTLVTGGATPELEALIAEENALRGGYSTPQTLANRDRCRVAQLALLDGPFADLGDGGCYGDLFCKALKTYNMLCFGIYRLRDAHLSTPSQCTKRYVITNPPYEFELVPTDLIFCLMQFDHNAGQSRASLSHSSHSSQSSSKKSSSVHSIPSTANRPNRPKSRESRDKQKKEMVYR

For “iberiotoxin (from UniProt P24663 1-37) (peptide)”, the outward current in response to applied voltage, single whole-cell patch clamp of isolated rat detrusor cells, 300 nM IBTX was more than 50%.
